T1: Murine APRIL (mouse, UniProt Q9D777 105-241, limits assumed)
T1 sequence (looked up): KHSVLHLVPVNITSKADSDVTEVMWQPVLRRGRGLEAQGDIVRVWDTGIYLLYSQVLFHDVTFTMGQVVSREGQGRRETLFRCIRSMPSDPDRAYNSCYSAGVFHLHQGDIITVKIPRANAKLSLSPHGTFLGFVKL


Columns and labels:
[1] = target: T1, Murine APRIL; assay: shotgun scan, phage display
Description: Phage from each of the libraries described above were subjected to rounds of binding selection against APRIL, BAFF, or anti-tag antibody (3C8:2F4 Genentech, Inc.) immobilized on 96-well Nunc Maxisorp immunoplates (Sidhu, 2001). BSA-coated wells were used to determine non-specific background binding. Phage eluted from each target were propagated in E. coli XL1-Blue in the presence of M13K07 helper phage; amplified phage were used for selection against the same target in the […] round. […] Enrichment was calculated from the ratio of the phage titer eluted from the target-coated wells to the phage titer eluted from the BSA-coated wells. Individual clones from each library and selection target were then grown in a 96-well format in 400 ul of 2YT medium supplemented with carbenicillin and KO7 helper phage. […] Sequences of acceptable quality were translated and aligned. For APRIL-binding, 71, 40, and 54 sequences were analyzed from libraries one, two and three, respectively. For BAFF-binding, 70, 50, and 53 sequences were analyzed for libraries one, two and three, respectively. For the display selection, a minimum of 47 sequences were analyzed for each library. […] F values describe the effect of mutation on target binding, while accounting for differences in display efficiencies, with values >1 representing deleterious mutations and those <1 representing favorable mutations.

[2] = target: human BAFF (human, UniProt Q9Y275 82-285, limits assumed); assay: NNS library, phage display;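 also: ligand versus display occurrence-to-degeneracy ratio and higher means enriched by binding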
Procedure: (§1) This new phage library was subjected to sorting against either BAFF, APRIL or the display target antibody. After 3 rounds of sorting, approximately 48 clones were picked from each selection and the DNA sequences of the phage clones were determined. […] The normalized F′ value corrects for display bias and is calculated as the percent occurrence to percent degeneracy ratio for ligand selection divided by the percent occurrence to percent degeneracy ratio for display efficiency. Percent occurrence is calculated by dividing the number of times a particular amino acid appeared at a particular position by the total number of amino acids sequenced at that position followed by multiplying by 100. Percent degeneracy is calculated by dividing the degeneracy in code for a particular amino acid divided by the total degeneracy possible at that position followed by multiplying by 100 (e.g., if only A, G and I were selected, total degeneracy possible would be 5).

[3] = target: T1, Murine APRIL; assay: NNS library, phage display;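 also: ligand versus display occurrence-to-degeneracy ratio and higher means enriched by binding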
Procedure: as §1

Chain of human BAFF (Q9Y275 82-285 limits assumed): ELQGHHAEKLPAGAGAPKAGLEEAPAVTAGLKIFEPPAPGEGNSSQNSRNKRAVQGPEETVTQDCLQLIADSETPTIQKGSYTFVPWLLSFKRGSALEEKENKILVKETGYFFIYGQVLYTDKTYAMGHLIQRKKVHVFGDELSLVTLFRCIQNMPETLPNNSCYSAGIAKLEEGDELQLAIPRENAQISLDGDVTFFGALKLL

Row | Binder | F (APRIL) [1] | F' BAFF [2] | F' APRIL [3]
1 | SLSCRKEQGKFYDHLLRDCISCASICGQHPKQCAYFCANKLR (receptor, phage library variant, format as m9) [TACI_d2 E105A] | 1.7 |  | 
2 | SLSCRKEQGKCYDHLLRDCISCASICGQHPKQCAYFCENKLR (receptor, phage library variant, format as m9) [TACI_d2 F78C] |  | 0 | 0
3 | SLSCRKEQGKDYDHLLRDCISCASICGQHPKQCAYFCENKLR (receptor, phage library variant, format as m9) [TACI_d2 F78D] |  | 0 | 0
4 | SLSCRKEQGKEYDHLLRDCISCASICGQHPKQCAYFCENKLR (receptor, phage library variant, format as m9) [TACI_d2 F78E] |  | 5 | 0
5 | SLSCRKEQGKGYDHLLRDCISCASICGQHPKQCAYFCENKLR (receptor, phage library variant, format as m9) [TACI_d2 F78G] |  | 0 | 0
6 | SLSCRKEQGKHYDHLLRDCISCASICGQHPKQCAYFCENKLR (receptor, phage library variant, format as m9) [TACI_d2 F78H] |  | 0 | 0
7 | SLSCRKEQGKIYDHLLRDCISCASICGQHPKQCAYFCENKLR (receptor, phage library variant, format as m9) [TACI_d2 F78I] |  | 10 | 7
8 | SLSCRKEQGKKYDHLLRDCISCASICGQHPKQCAYFCENKLR (receptor, phage library variant, format as m9) [TACI_d2 F78K] |  | 0 | 0
9 | SLSCRKEQGKLYDHLLRDCISCASICGQHPKQCAYFCENKLR (receptor, phage library variant, format as m9) [TACI_d2 F78L] |  | 0 | 0
10 | SLSCRKEQGKMYDHLLRDCISCASICGQHPKQCAYFCENKLR (receptor, phage library variant, format as m9) [TACI_d2 F78M] |  | 1 | 0
11 | SLSCRKEQGKNYDHLLRDCISCASICGQHPKQCAYFCENKLR (receptor, phage library variant, format as m9) [TACI_d2 F78N] |  | 0 | 0
12 | SLSCRKEQGKPYDHLLRDCISCASICGQHPKQCAYFCENKLR (receptor, phage library variant, format as m9) [TACI_d2 F78P] |  | 0 | 0
13 | SLSCRKEQGKQYDHLLRDCISCASICGQHPKQCAYFCENKLR (receptor, phage library variant, format as m9) [TACI_d2 F78Q] |  | 0 | 0
14 | SLSCRKEQGKRYDHLLRDCISCASICGQHPKQCAYFCENKLR (receptor, phage library variant, format as m9) [TACI_d2 F78R] |  | 0 | 0
15 | SLSCRKEQGKTYDHLLRDCISCASICGQHPKQCAYFCENKLR (receptor, phage library variant, format as m9) [TACI_d2 F78T] |  | 0 | 1
16 | SLSCRKEQGKWYDHLLRDCISCASICGQHPKQCAYFCENKLR (receptor, phage library variant, format as m9) [TACI_d2 F78W] |  | 0 | 0
17 | SLSCRKEQGKYYDHLLRDCISCASICGQHPKQCAYFCENKLR (receptor, phage library variant, format as m9) [TACI_d2 F78Y] |  | 41 | 61
18 | SLSCRKEQGKFYDHLLRDCISCASICGQHPKQCAYSCENKLR (receptor, phage library variant, format as m9) [TACI_d2 F103S] | 5.8 |  | 
19 | SLSCRKEQAKFYDHLLRDCISCASICGQHPKQCAYFCENKLR (receptor, phage library variant, format as m9) [TACI_d2 G76A] | 1.6 |  | 
20 | SLSCRKEQGKFYDALLRDCISCASICGQHPKQCAYFCENKLR (receptor, phage library variant, format as m9) [TACI_d2 H81A] | 2 |  | 
21 | SLSCRKEQGKFYDDLLRDCISCASICGQHPKQCAYFCENKLR (receptor, phage library variant, format as m9) [TACI_d2 H81D] | 0.9 |  | 
22 | SLSCRKEQGKFYDHLLRDCISCASICGQAPKQCAYFCENKLR (receptor, phage library variant, format as m9) [TACI_d2 H96A] | 12 |  | 

Row | Binder | F (APRIL) [1] | F' BAFF [2] | F' APRIL [3]
23 | SLSCRKEQGKFYDHLLRDCISCASICGQDPKQCAYFCENKLR (receptor, phage library variant, format as m9) [TACI_d2 H96D] | > 24 |  | 
24 | SLSCRKEQGKFYDHLLRDCISCASCCGQHPKQCAYFCENKLR (receptor, phage library variant, format as m9) [TACI_d2 I92C] |  | 0 | 0
25 | SLSCREEQGKFYDHLLRDCISCASICGQHPKQCAYFCENKLR (receptor, phage library variant, format as m9) [TACI_d2 K73E] | 7.7 |  | 
26 | SLSCRKEQGAFYDHLLRDCISCASICGQHPKQCAYFCENKLR (receptor, phage library variant, format as m9) [TACI_d2 K77A] | 1 |  | 
27 | SLSCRKEQGKFYDHLLRDCISCASICGQHPAQCAYFCENKLR (receptor, phage library variant, format as m9) [TACI_d2 K98A] | 3.5 |  | 
28 | SLSCRKEQGKFYDHLLRDCISCASICGQHPEQCAYFCENKLR (receptor, phage library variant, format as m9) [TACI_d2 K98E] | 6.9 |  | 
29 | SLSCRKEQGKFYDHLLRDCISCASICGQHPKQCAYFCENELR (receptor, phage library variant, format as m9) [TACI_d2 K107E] | 2.1 |  | 
30 | SLSCRKEQGKFYDHLARDCISCASICGQHPKQCAYFCENKLR (receptor, phage library variant, format as m9) [TACI_d2 L83A] | 31 |  | 
31 | SLSCRKEQGKFYDHLPRDCISCASICGQHPKQCAYFCENKLR (receptor, phage library variant, format as m9) [TACI_d2 L83P] | > 20 |  | 
32 | SLSCRKEQGKFYDHLLRDCISCASICGQHPKQCAYFCENKPR (receptor, phage library variant, format as m9) [TACI_d2 L108P] | 1.4 |  | 
33 | SLSCRKEQGKFYDHLLRDCISCASICGQHPKQCAYFCEDKLR (receptor, phage library variant, format as m9) [TACI_d2 N106D] | 1.2 |  | 
34 | SLSCRKEQGKFYDHLLRDCISCASICGQHAKQCAYFCENKLR (receptor, phage library variant, format as m9) [TACI_d2 P97A] | > 20 |  | 
35 | SLSCRKEQGKFYDHLLRDCISCASICGAHPKQCAYFCENKLR (receptor, phage library variant, format as m9) [TACI_d2 Q95A] | 6.6 |  | 
36 | SLSCRKEQGKFYDHLLRDCISCASICGEHPKQCAYFCENKLR (receptor, phage library variant, format as m9) [TACI_d2 Q95E] | 21 |  | 
37 | SLSCRKEQGKFYDHLLRDCISCASICGPHPKQCAYFCENKLR (receptor, phage library variant, format as m9) [TACI_d2 Q95P] | > 39 |  | 
38 | SLSCRKEQGKFYDHLLRDCISCASICGQHPKACAYFCENKLR (receptor, phage library variant, format as m9) [TACI_d2 Q99A] | 1.9 |  | 
39 | SLSCRKEQGKFYDHLLGDCISCASICGQHPKQCAYFCENKLR (receptor, phage library variant, format as m9) [TACI_d2 R84G] | 1.8 |  | 1
40 | SLSCRKEQGKFYDHLLPDCISCASICGQHPKQCAYFCENKLR (receptor, phage library variant, format as m9) [TACI_d2 R84P] | > 22 |  | 0
41 | SLSCRKEQGKFYDHLLRDCIACASICGQHPKQCAYFCENKLR (receptor, phage library variant, format as m9) [TACI_d2 S88A] | 3.8 |  | 
42 | SLSCRKEQGKFYDHLLRDCISCAAICGQHPKQCAYFCENKLR (receptor, phage library variant, format as m9) [TACI_d2 S91A] | 2.1 |  | 
43 | SLSCRKEQGKFSDHLLRDCISCASICGQHPKQCAYFCENKLR (receptor, phage library variant, format as m9) [TACI_d2 Y79S] | 31 |  | 0
44 | SLSCRKEQGKFYDHLLRDCISCASICGQHPKQCASFCENKLR (receptor, phage library variant, format as m9) [TACI_d2 Y102S] | 1.5 |  | 
